Results from article PMC6704107 (2019).

B1: Adeno-associated virus receptor (AAVR), wild-type, PKD1-5 domains [not stated] / Adeno-associated virus 1 (AAV1) particle, wild-type capsid [adeno-associated virus 1 (AAV1)] (parent complex)
chain 1: MEKRLGVKPNPASWILSGYYWQTSAKWLRSLYLFYTCFCFSVLWLSTDASESRCQQGKTQFGVGLRSGGENHLWLLEGTPSLQSCWAACCQDSACHVFWWLEGMCIQADCSRPQSCRAFRTHSSNSMLVFLKKFQTADDLGFLPEDDVPHLLGLGWNWASWRQSPPRAALRPAVSSSDQQSLIRKLQKRGSPSDVVTPIVTQHSKVNDSNELGGLTTSGSAEVHKAITISSPLTTDLTAELSGGPKNVSVQPEISEGLATTPSTQQVKSSEKTQIAVPQPVAPSYSYATPTPQASFQSTSAPYPVIKELVVSAGESVQITLPKNEVQLNAYVLQEPPKGETYTYDWQLITHPRDYSGEMEGKHSQILKLSKLTPGLYEFKVIVEGQNAHGEGYVNVTVKPEPRKNRPPIAIVSPQFQEISLPTTSTVIDGSQSTDDDKIVQYHWEELKGPLREEKISEDTAILKLSKLVPGNYTFSLTVVDSDGATNSTTANLTVNKAVDYPPVANAGPNQVITLPQNSITLFGNQSTDDHGITSYEWSLSPSSKGKVVEMQGVRTPTLQLSAMQEGDYTYQLTVTDTIGQQATAQVTVIVQPENNKPPQADAGPDKELTLPVDSTTLDGSKSSDDQKIISYLWEKTQGPDGVQLENANSSVATVTGLQVGTYVFTLTVKDERNLQSQSSVNVIVKEEINKPPIAKITGNVVITLPTSTAELDGSKSSDDKGIVSYLWTRDEGSPAAGEVLNHSDHHPILFLSNLVEGTYTFHLKVTDAKGESDTDRTTVEVKPDPRKNNLVEIILDINVSQLTERLKGMFIRQIGVLLGVLDSDIIVQKIQPYTEQSTKMVFFVQNEPPHQIFKGHEVAAMLKSELRKQKADFLIFRALEVNTVTCQLNCSDHGHCDSFTKRCICDPFWMENFIKVQLRDGDSNCEWSVLYVIIATFVIVVALGILSWTVICCCKRQKGKPKRKSKYKILDATDQESLELKPTSRAGIKQKGLLLSSSLMHSESELDSDDAIFTWPDREKGKLLHGQNGSVPNGQTPLKARSPREEIL
chain 2: MAADGYLPDWLEDNLSEGIREWWDLKPGAPKPKANQQKQDDGRGLVLPGYKYLGPFNGLDKGEPVNAADAAALEHDKAYDQQLKAGDNPYLRYNHADAEFQERLQEDTSFGGNLGRAVFQAKKRVLEPLGLVEEGAKTAPGKKRPVEQSPQEPDSSSGIGKTGQQPAKKRLNFGQTGDSESVPDPQPLGEPPATPAAVGPTTMASGGGAPMADNNEGADGVGNASGNWHCDSTWLGDRVITTSTRTWALPTYNNHLYKQISSASTGASNDNHYFGYSTPWGYFDFNRFHCHFSPRDWQRLINNNWGFRPKRLNFKLFNIQVKEVTTNDGVTTIANNLTSTVQVFSDSEYQLPYVLGSAHQGCLPPFPADVFMIPQYGYLTLNNGSQAVGRSSFYCLEYFPSQMLRTGNNFTFSYTFEEVPFHSSYAHSQSLDRLMNPLIDQYLYYLNRTQNQSGSAQNKDLLFSRGSPAGMSVQPKNWLPGPCYRQQRVSKTKTDNNNSNFTWTGASKYNLNGRESIINPGTAMASHKDDEDKFFPMSGVMIFGKESAGASNTALDNVMITDEEEIKATNPVATERFGTVAVNFQSSSTDPATGDVHAMGALPGMVWQDRDVYLQGPIWAKIPHTDGHFHPSPLMGGFGLKNPPPQILIKNTPVPANPPAEFSATKFASFITQYSTGQVSVEIEWELQKENSKRWNPEVQYTSNYAKSANVDFTVDNNGLYTEPRPIGTRYLTRPL

Variants of: B1
Assay: SPR (BIAcore); parent: 13.9 nM

Row | Variant | Kd [µM]
1 | chain 1 T426A | 46.9
2 | chain 1 V427A | 35.8
3 | chain 1 S425A | 3.68
